The target of assay [1] is HIV envelope gp120 of HIV recombinant strain NL43 that expresses GFP (HIV-1). In words: cell-based or functional assay.
Assay [2] has as its target HIV envelope gp120 of HIV-1 strain HXB2 engineered to express Green Fluorescence Protein (HIV-1) (UniProt P04578). Description: cell-based or functional assay.

As to sCD4(D1+D2)-IgG1 Fc (Fc fusion), in assay [1], the % GFP positive C8166 cells, NL4-GFP with version 1, average was found to be 8.47%; the % GFP positive C8166 cells, NL4-GFP with version 1, replicate 2 worked out at 7.49%; the % GFP positive cells, FIG. 8A, AGT117-transduced PBMC, column NL43-sCD4-Ig (control 0.46%) came to 0.26%; the % GFP positive cells, FIG. 8B, AGT117-transduced PBMC, column NL43-sCD4-Ig (control 7.75%) worked out at 2.98%. In assay [1], the % HIV positive primary CD4 T cells, AGT117-transduced (control 2.83%) is 0.65%; the decrease in HIV infection, primary CD4 T cells was found to be 77%; the proportion of infected CD4 T cells, AGT117-transduced (no vector average of 2%) stood at 0.024%; the virus inhibition, NL4-GFP challenge of C8166 cells came out at 53%. In assay [2], the % GFP positive C8166 cells, HXB2-GFP with version 1, replicate 2 was found to be 1.22% and the inhibition of virus infection, HXB2-GFP challenge of C8166 cells stood at 91%.

“VRC01 antibody (IL-2 secretory signal construct, expressed from AGT111)”: in assay [1], the % GFP positive cells, CD4 T cells, AGT111 at 2 MOI, day 5 (no vector 0.71%) came to 0.38%; the % GFP positive cells, CD4 T cells, AGT111 at 2 MOI, day 7 (no vector 2.18%) came to 1.37%; the % GFP positive cells, CD4 T cells, AGT111 at 4 MOI, day 5 (no vector 0.71%) came to 0.32%; the % GFP positive cells, CD4 T cells, AGT111 at 4 MOI, day 7 (no vector 2.18%) worked out at 0.94%. In assay [1], the % GFP positive cells, CD4 T cells, AGT111 at 8 MOI, day 5 (no vector 0.71%) was 0.25%; the % GFP positive cells, CD4 T cells, AGT111 at 8 MOI, day 7 (no vector 2.18%) turned out to be 0.36%; the decrease in HIV infection, C8166 cells amounted to 75.4%; the percent inhibition (cells protected), day 5, AGT111 MOI 8 came to 88%. Besides, in assay [1], the percent inhibition (cells protected), day 7, AGT111 MOI 8 came to 93%; the percent inhibition (cells protected), day 9, AGT111 MOI 2 came out at 6%; the percent inhibition (cells protected), day 9, AGT111 MOI 4 came to 7%.

In the case of “sCD4(D1+D2) (from UniProt P01730 26-203) (receptor)”, in assay [1], the % GFP positive cells, FIG. 8A, AGT116-transduced PBMC (control 0.46%) stood at 0.3%; the % GFP positive cells, FIG. 8B, AGT116-transduced PBMC (control 7.75%) was determined as 3.67%; the % HIV positive primary CD4 T cells, AGT116-transduced (control 2.83%) is 2.65%.

In the case of “VRC01 antibody (antibody secretory signal construct, expressed from AGT113)”, in assay [1], the % HIV positive primary CD4 T cells, AGT113-transduced (un-transduced 1.28%) stood at 0.36% and the decrease in HIV infection, C8166 cells was determined as 96.7%.

On to “3BNC117 antibody (IL-2 secretory signal construct, expressed from AGT112)”, for which, in assay [1], the % GFP positive (HIV-infected) cells, transduced PBMC, donor NY025 (control without vector 3.96%) worked out at 1.79% and the % GFP positive (HIV-infected) cells, transduced PBMC, donor NY026 (control without vector 0.57%) came to 0.3%.

For the origin of these results see US20240279678A1.
